This note sets out measurements from patent US20250171532A1 (NB HEALTH LABORATORY, published 2025).

Where a chain is given by its changes, count along the chain named.

The chains are these.
T1: mouse LPA3 with FLAG tag (mouse LPA3 gene transfected cell) (mouse, UniProt Q9EQ31 1-354)
T1 construct: not shown: FLAG tag added at the 5' terminal of the gene
T1 sequence: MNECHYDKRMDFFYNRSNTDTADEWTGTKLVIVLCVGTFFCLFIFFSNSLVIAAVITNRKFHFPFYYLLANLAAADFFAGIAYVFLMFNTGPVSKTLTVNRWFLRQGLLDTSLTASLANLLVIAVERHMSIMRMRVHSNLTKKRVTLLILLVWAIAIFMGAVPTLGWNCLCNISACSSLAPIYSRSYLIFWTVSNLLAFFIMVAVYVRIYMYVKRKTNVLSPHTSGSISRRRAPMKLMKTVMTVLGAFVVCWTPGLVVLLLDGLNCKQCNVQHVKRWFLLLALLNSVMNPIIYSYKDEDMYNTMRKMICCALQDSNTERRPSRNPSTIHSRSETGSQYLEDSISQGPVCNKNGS

T2: human LPA3 with FLAG tag (human LPA3 gene transfected cell) (human, UniProt Q9UBY5 1-353)
T2 construct: also called EDG7; not shown: FLAG tag added at the 5' terminal of the gene
T2 sequence: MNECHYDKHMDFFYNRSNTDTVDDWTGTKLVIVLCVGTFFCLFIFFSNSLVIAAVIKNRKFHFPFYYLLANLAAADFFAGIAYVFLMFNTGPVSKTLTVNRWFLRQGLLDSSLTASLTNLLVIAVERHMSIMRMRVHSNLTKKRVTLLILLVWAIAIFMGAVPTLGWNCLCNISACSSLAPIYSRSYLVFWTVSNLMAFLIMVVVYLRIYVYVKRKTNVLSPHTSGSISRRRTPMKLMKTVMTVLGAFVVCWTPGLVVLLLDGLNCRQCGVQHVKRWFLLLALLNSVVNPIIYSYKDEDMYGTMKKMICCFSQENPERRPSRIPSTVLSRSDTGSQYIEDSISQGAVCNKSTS

B1: 210309-1-G (antibody, mouse IgG1, V domains shown)
VH: QVQLQQSGAELARPGASMKLSCRASGYTFTSYGISWVKQRTGQGLEWIGEIYPRSGVTYYNEKFKGRATLTADKSSSTAFMELRSLTSEDSAVYFCARESISLRLGWYFDVWGTGTTVTVSS
VL: DIQMTQSPASLSASVGDTVTITCRASENIYRFLAWYQQKQRKSPHLLVYNAKTLAEGVPSRFSGSGSGTQFSLKINSLQPEDFGSYYCQHHYGPPLTFGAGTKLELT
notes: Mouse monoclonal from human LPA1 immunization
B2: 211222-1-G (antibody, mouse IgG1, V domains shown)
VH: QVQVQQSGAELARPGASVRLSCKASGYTFTSFGVNWVKQRTGQGLEWIGQIYPRTGTTYHNERFKGKATLTADKSSSTAYMELRSLTSEDSAVYFCAREGDRYSLAYWGQGTLVTVSA
VL: B1 VL with D17E, R41G, H45Q, A55V, S77N, P94I, T107K
notes: as for B1
B3: 210420-3-E (antibody, mouse IgG1, V domains shown)
VH: QLQLQQSGAELARPGASVKLSCKASGYTFASFGISWVKQRAGQGLEYIGEIYPRSGTTYFNEKFRGKATLTADKSSSTAYMELRRLTSEDSAVYFCAREGVRRYAMDYWGQGTSVTVSS
VL: B1 VL with M4V, D17E, E27G, R31S, R41G, H45Q, P94I, E105D, T107K
notes: Mouse monoclonal from mouse LPA1 immunization
B4: 210420-4-E (antibody, mouse IgG1, V domains shown)
VH: B3 VH with Q3H, K19R, A41T, T71S, R85S
VL: B1 VL with M4V, D17E, E27G, R31S, R41G, H45Q, N76S, P94I, E105D, T107K
notes: as for B3
B5: 210309-2-D (antibody, mouse IgG1, V domains shown)
VH: B1 VH with M18V, R23K, V57N, F64V, R67K, F80Y, S102F
VL: B1 VL with D17E, E27D, R41G, H45Q, S67T, S85I, T107K
notes: as for B1

T5 sequence (Q9JL06 whole entry): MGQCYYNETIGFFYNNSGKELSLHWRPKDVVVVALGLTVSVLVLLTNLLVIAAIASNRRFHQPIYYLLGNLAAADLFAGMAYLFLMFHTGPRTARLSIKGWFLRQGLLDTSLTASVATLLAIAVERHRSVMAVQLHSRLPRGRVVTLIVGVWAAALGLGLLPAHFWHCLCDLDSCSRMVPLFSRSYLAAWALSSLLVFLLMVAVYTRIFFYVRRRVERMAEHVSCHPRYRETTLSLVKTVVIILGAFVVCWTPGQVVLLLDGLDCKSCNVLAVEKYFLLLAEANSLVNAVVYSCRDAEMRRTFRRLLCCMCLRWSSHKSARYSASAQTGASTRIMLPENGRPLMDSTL
T3 sequence (Q92633 whole entry): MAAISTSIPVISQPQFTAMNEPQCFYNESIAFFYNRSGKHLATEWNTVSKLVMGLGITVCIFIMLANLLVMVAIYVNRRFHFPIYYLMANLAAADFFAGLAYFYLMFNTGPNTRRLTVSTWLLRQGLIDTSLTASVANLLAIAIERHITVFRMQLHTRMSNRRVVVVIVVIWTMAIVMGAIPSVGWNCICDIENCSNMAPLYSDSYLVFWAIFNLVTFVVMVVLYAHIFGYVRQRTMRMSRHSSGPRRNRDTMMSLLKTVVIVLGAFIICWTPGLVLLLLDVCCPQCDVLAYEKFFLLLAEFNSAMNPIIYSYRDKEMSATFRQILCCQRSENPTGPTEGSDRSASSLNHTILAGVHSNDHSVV

The first assay has as its target T3, human LPA1 (human, UniProt Q92633 1-364). The assay is described as follows: cell-based or functional assay.
B1: the “Intracellular cAMP signaling inhibition IC50” value is 40.9 nM.
Same read-out and setting: with B2 the figure was 96.8 nM.
In the case of B3, the “Intracellular cAMP signaling inhibition IC50” value is 33.1 nM.
Still for that read-out and setting: then B4, with 48.3 nM; and B5, with 18 nM.

The target in a further assay is T4, mouse LPA1 (mouse, UniProt P61793 1-364). The assay is described as follows: cell-based or functional assay.
T4 sequence (P61793 whole entry): as the sequence (Q92633 whole entry) above, with I4A, I8S, P22Q, H40Y, I61V, E193D, N194H, I269V, S331N, T335N counted along it
Consider B1, for which the “Intracellular cAMP signaling inhibition IC50” value was found to be 197 nM.
The same measure, in the same setting: with B2 the figure was 199 nM; with B3, 114 nM; with B4, 124 nM.
Regarding B5, the “Intracellular cAMP signaling inhibition IC50” value turned out to be 163 nM.

In a further assay the target is T3, human LPA1. Nature of the assay: flow cytometry, human LPA1-stably expressing CHO cells, median fluorescence intensity. From the text: (§1) The human LPA1-stably expressing CHO cell and the mouse LPA1-stably expressing CHO cell were washed with PBS, then detached from the cell culture dishes by an enzyme-free cell dissociation buffer (Thermo Fisher Scientific, Inc.), then washed with PBS, and then collected by centrifugation. The human LPA1-stably expressing CHO cell and the mouse LPA1-stably expressing CHO cell were suspended at 1×10⁷ cells/mL in Fc Block (Sci-Tech Biosciences, Inc.) diluted by 500 times in FACS buffer, and then allowed to stand at 4° C. for 30 minutes to block the cells. The cells were collected by centrifugation and suspended in FACS buffer at 4×10⁶ cells/mL, and this suspension was dispensed into a V-bottom 96-well plate (Thermo Fisher Scientific, Inc.) at 25 μL (1×10⁵ cells)/well. As primary antibodies, the eleven types of LPA1 antibodies produced and purified by the method described above and a mouse isotype control antibody (Fujifilm Wako Pure Chemicals Corporation) were diluted stepwise, which was added to each well at 25 μL/well, and allowed to stand at 4° C. for 1 hour. The cells were collected by centrifugation and washed with 120 μL of FACS buffer. This washing operation was repeated twice. To the cell sediment, 25 μL each of Goat Anti-Mouse IgG H&L (DyLight 650) (Abcam) that was a secondary antibody diluted by 500 times in FACS buffer was dispensed, then suspended, and then allowed to stand at 4° C. for 1 hour. The cells were washed twice, then suspended in 50 μL of FACS buffer, and the binding of antibodies to the cells was measured using a flow cytometer (Agilent Novocyte).
(§2) A graph was created, in which a concentration of the antibody was plotted on the […] axis, and a median fluorescence intensity of the flow cytometer histogram was plotted on the horizontal axis. All of the eleven antibodies were confirmed to dose-dependently bind to the human LPA1-stably expressing CHO cell and the mouse LPA1-stably expressing CHO cell. The results of the binding of each antibody to the human LPA1-stably expressing CHO cell are presented in FIG. 2A to FIG. 2K, and the results of the binding of each antibody to the mouse LPA1-stably expressing CHO cell are presented in FIG. 3A to FIG. 3K.
On the technique in general: In flow cytometry, cells or beads pass a laser one at a time.
In the case of B1, the midpoint of the response, the EC50, lay at 1.8 nM.
Same read-out and setting: with B2 the figure was 4.2 nM; with B3, 1.9 nM; with B4, 2 nM.
Same read-out and setting: then B5, with 1.8 nM.

Another assay addresses T5, mouse LPA2 with FLAG tag (mouse LPA2 gene transfected cell) (mouse, UniProt Q9JL06 1-348).
T5 construct: not shown: FLAG tag added at the 5' terminal of the gene
Nature of the assay: flow cytometry, transfected HEK293FT cells, histogram shift. The protocol: (§3) BTEK293FT cell was transfected with 10 μg of an expression vector carrying each synthetic gene using Lipofectamine 2000, to prepare a human LPA1 gene transfected cell, a mouse LPA1 gene transfected cell, a human LPA2 gene transfected cell, a mouse LPA2 gene transfected cell, a human LPA3 gene transfected cell, and a mouse LPA3 gene transfected cell.
(§4) The next day, the cells were washed with PBS, then detached from the cell culture dishes by an enzyme-free cell dissociation buffer (Thermo Fisher Scientific, Inc.), then washed with PBS, and then collected by centrifugation. Goat serum (Thermo Fisher Scientific, Inc.) was diluted by 2 times in FACS buffer (PBS containing 1% o of FBS), into which the cells were suspended at 1×10⁷ cells/mL. This suspension was allowed to stand at 4° C. for 30 minutes to block the cells. The cells were collected by centrifugation and suspended in FACS buffer at 4×10⁶ cells/mL, and this suspension was dispensed into a V-bottom 96-well plate (Thermo Fisher Scientific, Inc.) at 25 μL (1×10⁵ cells)/well.
(§5) The cells were collected by centrifugation and washed with 120 μL of FACS buffer. This washing operation was repeated twice. To the cell sediment, 25 μL each of Goat Anti-Mouse IgG H&L (DyLight 650) (Abcam) that was a secondary antibody diluted by 500 times in FACS buffer was dispensed, then suspended, and then allowed to stand at 4° C. for 1 hour. The cells were washed twice, then suspended in 50 μL of FACS buffer, and the whole content thereof was transferred to a V-bottom 96-well plate (Greiner), to measure the binding of antibodies to the cells using a flow cytometer (Agilent Novocyte).
With B1, the binding result is listed as “no binding (tested: 25 g/mL (so in the source))”.
Turning to B2, the binding result is given as “no binding (tested: 25 g/mL (so in the source))”.
Still for that read-out and setting: then B3, with “no binding (tested: 25 g/mL (so in the source))”; and B4, with “no binding (tested: 25 g/mL (so in the source))”; and B5, with “no binding (tested: 25 g/mL (so in the source))”.

The next assay deals with T1, mouse LPA3 with FLAG tag (mouse LPA3 …). The assay is described as above. The protocol:
as §3, §4, §5
B1: the binding result is “no binding (tested: 25 g/mL (so in the source))”.
Still for that read-out and setting: then B2, with “no binding (tested: 25 g/mL (so in the source))”; and B3, with “no binding (tested: 25 g/mL (so in the source))”.
Same read-out and setting: with B4 the entry was “no binding (tested: 25 g/mL (so in the source))”.
Regarding B5, the binding result was “no binding (tested: 25 g/mL (so in the source))”.

The next assay deals with T2, human LPA3 with FLAG tag (human LPA3 …). The description is as above. The protocol: as §3, §4, §5
With B1, the binding result was “no binding (tested: 25 g/mL (so in the source))”.
On the same count and under the same terms, then B2, with “no binding (tested: 25 g/mL (so in the source))”.
Same read-out and setting: with B3 the entry was “no binding (tested: 25 g/mL (so in the source))”; with B4, “no binding (tested: 25 g/mL (so in the source))”; with B5, “no binding (tested: 25 g/mL (so in the source))”.

Another assay deals with T6, human LPA2 with FLAG tag (human LPA2 gene transfected cell) (human, UniProt Q9HBW0 1-348).
T6 construct: also called EDG4; not shown: FLAG tag added at the 5' terminal of the gene
T6 sequence (Q9HBW0 other isoform, or with tags, fused parts or gaps): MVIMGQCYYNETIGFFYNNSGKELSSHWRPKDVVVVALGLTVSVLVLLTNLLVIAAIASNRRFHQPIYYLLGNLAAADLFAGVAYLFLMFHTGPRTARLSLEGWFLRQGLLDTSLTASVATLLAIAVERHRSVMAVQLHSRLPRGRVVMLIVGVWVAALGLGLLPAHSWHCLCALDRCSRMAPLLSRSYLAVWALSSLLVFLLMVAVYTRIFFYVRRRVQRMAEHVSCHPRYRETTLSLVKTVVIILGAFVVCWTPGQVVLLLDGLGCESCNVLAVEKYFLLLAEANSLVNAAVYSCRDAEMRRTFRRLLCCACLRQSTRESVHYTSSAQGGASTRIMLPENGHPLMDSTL
Described as above. The protocol: as §3, §4, §5
Regarding B1, the binding result is “no binding (tested: 25 g/mL (so in the source))”.
On the same count and under the same terms, then B2, with “no binding (tested: 25 g/mL (so in the source))”; and B3, with “no binding (tested: 25 g/mL (so in the source))”.
Still for that read-out and setting: with B4 the entry was “no binding (tested: 25 g/mL (so in the source))”.
The same measure, in the same setting: then B5, with “no binding (tested: 25 g/mL (so in the source))”.

The target in a further assay is T4, mouse LPA1. The assay is described as follows: flow cytometry, mouse LPA1-stably expressing CHO cells, median fluorescence intensity.
Description: as §1, §2
Regarding B1, the EC50 stood at 2.4 nM.
Molecule B2 yielded an EC50 of 2.3 nM.
Molecule B3 yielded an EC50 of 1 nM.
The same measure, in the same setting: with B4 the figure was 1.3 nM.
B5: the EC50 was found to be 2.1 nM.

The next assay deals with T3, human LPA1. Nature of the assay: cell-based or functional assay. The source holds these as a separate data set.
B1: the “Intracellular cAMP signaling inhibition (Inhibition rate %/100 nM)” value was found to be 34%.
As for B2, the “Intracellular cAMP signaling inhibition (Inhibition rate %/100 nM)” value is 22%.
Still for that read-out and setting: with B3 the figure was 44%; with B4, 24%; with B5, 51%.

In another assay the target is T4, mouse LPA1. The assay is described as follows: cell-based or functional assay. The source holds these as a separate data set.
Turning to B1, the “Intracellular cAMP signaling inhibition (Inhibition rate %/100 nM)” value came to 36%.
Turning to B2, the “Intracellular cAMP signaling inhibition (Inhibition rate %/100 nM)” value was 49%.
On the same count and under the same terms, with B3 the figure was 50%; with B4, 46%.
The same measure, in the same setting: then B5, with 53%.

As usually defined, the EC50 is the concentration needed to bring the measured effect to its halfway point. Lower therefore signals greater potency.
